± gives the uncertainty stated by the source.
Assay: self-splicing fitness, log relative to wild type (ln ratio); higher = more splicing; Tetrahymena group I intron in knt gene, E. coli kanamycin selection, DiMSum; sequences stand for … in CUCUCU…GGAGGGAAAAGUUAUCAGGCAUGCACCUGGUAGCUAGUCUUUAAACCAAUAGAUUGCAUCGGUUUAAAAGGCAAGACCGUCAAAUUGCGGGAAAGGGGUCAACAGCCGUUCAGUACCAAGUCUCAGGGGAAACUUUGAGAUGGCCUUGCAAAGGGUAUGGUAAUAAGCUGACGGACAUGGUCCUAACCACGCAGCCAAGUCCUAAGUCAACAGAUCUUCUGUUGAUAUGGAUGCAGUUCACAGACUAAAUGUCGGUCGGGGAAGAUGUAUUCUUCUCAUAAGAUAUAGUCGGACCUCUCCUUAAUGGGAGCUAGCGGAUGAAGUGAUGCAACACUGGAGCCGCUGGGAACUAAUUUGUAUGCGAAAGUAUAUUGAUUAGUUUUGGAGUACUCGUGGUCG
Method in brief: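 DiMSum derived fitness as the error-weighted combination of fold changes across replicates, kanamycin versus no kanamycin, normalised to wild type. E. coli BL21(DE3) held the library, which randomised all eight P1ex-region intron nucleotides within the knt kanamycin-resistance gene on pET-22b(+). Six replicate transformations grew overnight at 37°C or 30°C on LB agar with or without 25 μg/mL kanamycin, also containing 100 μg/mL carbenicillin, 50 μM IPTG and 0.2% rhamnose, and pooled colonies were amplicon-sequenced on an Illumina HiSeq 2500.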

Sequence	self-splicing fitness (ln) (30 °C)	self-splicing fitness (ln) (37 °C)
UCGCAGCAAUAUUACGCCUA	-1.21 ± 0.13	0.0885 ± 0.14
UCGCAGCAAUAUUACGCCUU	-1.44 ± 0.12	-0.631 ± 0.15
UCGCAGCAAUAUUACGCGAA	-1.65 ± 0.23	-2.45 ± 0.25
UCGCAGCAAUAUUACGCGCA	-0.382 ± 0.091	-0.601 ± 0.078
UCGCAGCAAUAUUACGGACG	-1.44 ± 0.15	-0.806 ± 0.13
UCGCAGCAAUAUUACGGAGG	-3.71 ± 0.18	-2.05 ± 0.15
UCGCAGCAAUAUUACGGGAA	-2.44 ± 0.15	-1.49 ± 0.13
UCGCAGCAAUAUUACGGUCA	-0.966 ± 0.1	0.119 ± 0.11
UCGCAGCAAUAUUACGUAAC	-3.25 ± 0.29	-1.73 ± 0.23
UCGCAGCAAUAUUACGUACG	-1.12 ± 0.12	-0.686 ± 0.13
UCGCAGCAAUAUUACGUAUA	-1.82 ± 0.11	-0.691 ± 0.12
UCGCAGCAAUAUUACGUGAA	-1.32 ± 0.078	-0.713 ± 0.086
UCGCAGCAAUAUUACGUGUG	-2.24 ± 0.074	-2.33 ± 0.12
UCGCAGCAAUAUUACGUUAA	-2.18 ± 0.12	-1 ± 0.096
UCGCAGCAAUAUUACGUUGG	-2.56 ± 0.11	-2.12 ± 0.12
UCGGAGCAAUAUUACGAACA	-2.3 ± 0.21	-1.25 ± 0.21
UCGGAGCAAUAUUACGACAU	-3.91 ± 0.041	-2.98 ± 0.052
UCGGAGCAAUAUUACGACCG	-2.42 ± 0.45	–
UCGGAGCAAUAUUACGAGGG	-3.58 ± 0.21	-2.94 ± 0.44
UCGGAGCAAUAUUACGCACU	-3.53 ± 0.25	-2.23 ± 0.23
UCGGAGCAAUAUUACGCCUG	-0.894 ± 0.26	–

Sequence	self-splicing fitness (ln) (30 °C)	self-splicing fitness (ln) (37 °C)
UCGGAGCAAUAUUACGCGCG	-2.02 ± 0.18	-0.752 ± 0.2
UCGGAGCAAUAUUACGCUUA	-2.33 ± 0.33	-1.89 ± 0.41
UCGGAGCAAUAUUACGGCGC	-2.09 ± 0.31	–
UCGGAGCAAUAUUACGGGAG	–	-2.24 ± 0.44
UCGGAGCAAUAUUACGGUAU	-3.24 ± 0.35	-2.16 ± 0.26
UCGGAGCAAUAUUACGUAAU	–	-1.86 ± 0.33
UCGGAGCAAUAUUACGUCAU	–	-2.37 ± 0.25
UCGGAGCAAUAUUACGUCGU	-1.37 ± 0.25	-1.73 ± 0.3
UCGGAGCAAUAUUACGUGCA	-0.902 ± 0.17	-1.03 ± 0.25
UCGGAGCAAUAUUACGUUGG	-2.09 ± 0.17	-1.77 ± 0.23
UCGUAGCAAUAUUACGACCA	-1.35 ± 0.3	–
UCGUAGCAAUAUUACGAUGG	-1.88 ± 0.12	-1.07 ± 0.14
UCGUAGCAAUAUUACGCAUG	-2.33 ± 0.18	-0.84 ± 0.16
UCGUAGCAAUAUUACGCCAU	–	-0.949 ± 0.45
UCGUAGCAAUAUUACGCCGU	-1.52 ± 0.14	-0.646 ± 0.16
UCGUAGCAAUAUUACGGCAG	-2.75 ± 0.13	-2.07 ± 0.15
UCGUAGCAAUAUUACGGCGA	-1.85 ± 0.37	-0.98 ± 0.2
UCGUAGCAAUAUUACGGCUA	-0.508 ± 0.32	-1.81 ± 0.23
UCGUAGCAAUAUUACGGGAA	-1.71 ± 0.2	-1.06 ± 0.16
UCGUAGCAAUAUUACGGGUC	-3.02 ± 0.26	-4.36 ± 0.46

From the supplement of paper PMC7877785
